Substitutions are numbered along the chain they refer to.

Among the data in patent US20200377590A1 (Hoffmann-La Roche, published 2020) are ELISA data values, retold here.

Sequences and labels used below:
T1: CD81 (UniProt P60033 1-236, limits assumed)
T1 construct: whole, on cells; also called CD81 receptor
T1 sequence (looked up): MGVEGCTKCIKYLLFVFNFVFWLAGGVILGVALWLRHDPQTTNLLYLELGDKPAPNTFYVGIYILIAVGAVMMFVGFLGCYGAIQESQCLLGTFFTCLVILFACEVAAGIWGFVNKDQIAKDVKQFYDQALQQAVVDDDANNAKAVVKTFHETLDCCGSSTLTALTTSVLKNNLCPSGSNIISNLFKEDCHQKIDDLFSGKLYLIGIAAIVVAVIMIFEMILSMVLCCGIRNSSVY

B1: CD81K04 HC JA_GG-14-hVH_1_69-GA / LC GG-04-hVK_4_1 (antibody, V domains shown)
VH: QVQLVQSGAEVKKPGSSVKVSCKASGYTFSSSWMNWVRQAPGQGLEWMGRIYSGDGDAIYNGKFKGKATITADESTSTAYMELSSLRSEDTAVYYCAREGKTGDLLLRSWGQGTLVTVSS
VL: DIVMTQSPDSLAVSLGERATINCKSSKSVSTSIYSYLAWYQQKPGQPPKLLIYYASTRESGVPDRFSGSGSGTDFTLTISSLQAEDVAVYYCQHSREFPYTFGQGTKLEIK
notes: human constant region
B2: CD81K04 HC JA_GG-14-hVH_1_69-GA / LC JA_GG-07-hVK_7_3 (antibody, V domains shown)
VH: B1 VH
VL: DIVLTQSPASLAVSPGQRATITCRASKSVSTSIYSYMHWYQQKPGQPPKLLIKYASNKDTGVPARFSGSGSGTDFTLTINPVEANDAANYYCLHSREFPYTFGQGTKLEIK
notes: human constant region
B3: CD81K13 HC 04-hVH_1_69 / LC CD81K13 (antibody, V domains shown)
VH: EVQLVESGGGLVQPGRSLRLSCTASGFNFKDSYLHWVRQAPGQGLEWMGRIDTGNGNVKFDPKFQGRVTITADESTSTAYMELSSLRSEDTAVYYCVPYGYGFHSWGQGTLVTVSS
VL: DIQMTQSPASLSVSVGETVTITCRASENIYRTLAWYLQKQGKSPQLLVYGATTLADGVPSRFSGSGSGTQYYLKINSLQSEDFGTYHCQHFWGTPWTFGGGTKVEIK
notes: human constant region
B4: CD81K13 HC 04-hVH_1_69 / LC 01-hVK_3_15 (antibody, V domains shown)
VH: B3 VH
VL: EIVMTQSPATLSVSPGERATLSCRASENIYRTLAWYQQKPGQAPRLLIYGATTRATGIPARFSGSGSGTEFTLTISSLQSEDFGVYYCQHFWGTPWTFGQGTKVEIK
notes: human constant region
B5: CD81K13 HC 04-hVH_1_69 / LC 1c-hVK_3_15 (antibody, V domains shown)
VH: B3 VH
VL: B4 VL with R54L, T56D
notes: human constant region
B6: CD81K13 HC 04-hVH_1_69 / LC 1b-hVK_3_15 (antibody, V domains shown)
VH: B3 VH
VL: B4 VL with R54L, T56D, G84A
notes: human constant region
B7: CD81K13 HC 06-hVH_1_3 / LC 05-hVK_1_39 (antibody, V domains shown)
VH: QVQLVQSGAEVKKPGASVKVSCKASGYTFKDSYLHWVRQAPGQRLEWMGRIDTGNGNVKFDPKFQGRVTITTDTSASTAYMELSSLRSEDTAVYYCAPYGYGFHSWGQGTLVTVSS
VL: DIQMTQSPSSLSASVGDRVTITCRASENIYRTLAWYQQKPGKAPKLLIYAATTLASGVPSRFSGSGSGTDFTLTISSLQPEDFATYYCQHFWGTPWTFGQGTKVEIK
notes: human constant region
B8: CD81K13 HC 04-hVH_1_69 / LC 05-hVK_1_39 (antibody, V domains shown)
VH: B3 VH
VL: B7 VL
notes: human constant region
B9: CD81K13 HC 04-hVH_1_69 / LC 03-hVK_1_9 (antibody, V domains shown)
VH: B3 VH
VL: B7 VL with M4L, S10F, D70E
notes: human constant region
B10: CD81K13 HC 04-hVH_1_69 / LC 04-hVK_1_9 (antibody, V domains shown)
VH: B3 VH
VL: B7 VL with M4L, S10F, D70E, A84G
notes: human constant region
B11: CD81K13 HC 04-hVH_1_69 / LC 5b-hVK_1_39-GA (antibody, V domains shown)
VH: B3 VH
VL: B7 VL with A50G, S56D
notes: human constant region
B12: CD81K13 HC 04-hVH_1_69 / LC 5b-hVK_1_39 (antibody, V domains shown)
VH: B3 VH
VL: B7 VL with A50G, S56D
notes: human constant region
B13: CD81K13 HC 04-hVH_1_69 / LC 06-hVK_1_39 (antibody, V domains shown)
VH: B3 VH
VL: B7 VL with A84G
notes: human constant region
B14: CD81K13 HC 06-hVH_1_3 / LC 06-hVK_1_39 (antibody, V domains shown)
VH: B7 VH
VL: B7 VL with A84G
notes: human constant region
B15: CD81K13 HC 07-hVH_1_3 / LC 03-hVK_1_9 (antibody, V domains shown)
VH: B7 VH with R44G
VL: B7 VL with M4L, S10F, D70E
notes: human constant region
B16: CD81K13 HC 06-hVH_1_3 / LC 07-hVK_1_27 (antibody, V domains shown)
VH: B7 VH
VL: B7 VL with A43V, F83V, A84G, H90K
notes: human constant region
B17: CD81K13 HC 07-hVH_1_3 / LC 07-hVK_1_27 (antibody, V domains shown)
VH: B7 VH with R44G
VL: B7 VL with A43V, F83V, A84G, H90K
notes: human constant region
B18: CD81K13 HC 07-hVH_1_3 / LC 05-hVK_1_39 (antibody, V domains shown)
VH: B7 VH with R44G
VL: B7 VL
notes: human constant region
B19: CD81K13 HC 06-hVH_1_3 / LC 5b-hVK_1_39-GA (antibody, V domains shown)
VH: B7 VH
VL: B7 VL with A50G, S56D
notes: human constant region
B20: CD81K13 HC 07-hVH_1_3 / LC 5b-hVK_1_39-GA (antibody, V domains shown)
VH: B7 VH with R44G
VL: B7 VL with A50G, S56D
notes: human constant region
B21: CD81K13 HC 06-hVH_1_3 / LC 5b-hVK_1_39 (antibody, V domains shown)
VH: B7 VH
VL: B7 VL with A50G, S56D
notes: human constant region
B22: CD81K13 HC 07-hVH_1_3 / LC 04-hVK_1_9 (antibody, V domains shown)
VH: B7 VH with R44G
VL: B7 VL with M4L, S10F, D70E, A84G
notes: human constant region
B23: CD81K13 HC 07-hVH_1_3 / LC 5b-hVK_1_39 (antibody, V domains shown)
VH: B7 VH with R44G
VL: B7 VL with A50G, S56D
notes: human constant region
B24: CD81K13 HC 07-hVH_1_3 / LC 06-hVK_1_39 (antibody, V domains shown)
VH: B7 VH with R44G
VL: B7 VL with A84G
notes: human constant region

The target of one assay is T1, CD81. The experiment in a line: cell ELISA.
Turning to B1, the ELISA data came to 0.107. The same measure, in the same setting: the result for B2 reads 0.107.

The target in a further assay is T1, CD81. The experiment in a line: cell ELISA. This is another data set of the same source.
In turn, B1 displayed an ELISA data of 0.12.

With B2, the ELISA data was found to be 0.125.

In a further assay the target is T1, CD81. The experiment in a line: cell ELISA. This is another data set of the same source. On the technique in general: ELISA stands for enzyme-linked immunosorbent assay.
For the molecule B3, the ELISA data amounted to 0.776. Still for that read-out and setting: the result for B4 reads 0.513; that for B5, 0.395; that for B6, 0.277. Same read-out and setting: the result for B7 reads 0.315; that for B8, 0.776. In turn, B9 showed an ELISA data of 0.52. Same read-out and setting: the result for B10 reads 0.459. Still for that read-out and setting: the result for B11 reads 0.403; that for B12, 0.428. The same measure, in the same setting: the result for B13 reads 0.386; that for B14, 0.323; that for B15, 0.331. In turn, B16 showed an ELISA data of 0.078. On to B17, for which the ELISA data came to 0.073.

B18 displayed an ELISA data of 0.4.

Take B19: the ELISA data was 0.37.

In turn, B20 registered an ELISA data of 0.363. On the same count and under the same terms, the result for B21 reads 0.388; that for B22, 0.141; that for B23, 0.448. Still for that read-out and setting: the result for B24 reads 0.269.
